{"source": "the DeepSol protein solubility set"}
{"experiment": "soluble on expression in E. coli; label from the status in PepcDB or PDB records"}
{"sequence": "METSKEFEFRPAKETSRSKSPGGIVGRLSNFARNKARHSLSEKGSNSVGGSGGAGFDKPRKDLLKEFHKCKEAQDQRLDLSSIEITSIPSPIKELTQLTELFLYKNKLTCLPTEIGQLVNLKKLGLSENALTSLPDSLASLESLETLDLRHNKLTEVPSVIYKIGSLETLWLRYNRIVAVDEQIGNLSKLKMLDVRENKIRELPSAIGKLTSLVVCLVSYNHLTRVPEEIGDCHSLTQLDLQHNDLSELPYSIGKLVNLVRIGIRYNKIRCIPSELESCQQLEEFIVESNHLQLLPPNLLTMLPKIHTVNLSRNELTAFPAGGPQQFVSTVTINMEHNQISKIPIGIFSKATRLTKLNLKENELVSLPLDMGSWTSITELNLSTNQLKVLPEDIEKLVNLEILVLSNNQLKKLPNQIGNLNKLRELDLEENELETVPTEIGFLQHLTKLWVQSNKILTLPRSIGNLCSLQDLRLGENNLTAIPEEIGHLDSLKSLYLNDNSSLHNLPFELALCQSLEIMSIENSPLSQIPPEITAGGPSLVIQYLKMQGPYRGVVMNSQ", "soluble on expression in E. coli": "not soluble"}
{"sequence": "MSLPINVPSGLPAVKVLAKEGIFVMTEKRAIHQDIRPLEILILNLMPDKIKTEIQLLRLLGNTPLQVNVTLLYTETHKPKHTPIEHILKFYTTFSAVKDRKFDGFIITGAPVELLPFEEVDYWEELTEIMEWSRHNVYSTMFICWAAQAGLYYFYGIPKYELPQKLSGVYKHRVAKDSVLFRGHDDFFWAPHSRYTEVKKEDIDKVPELEILAESDEAGVYVVANKSERQIFVTGHPEYDRYTLRDEYYRDIGRNLKVPIPANYFPNDDPTKTPILTWWSHAHLFFSNWLNYCIYQKTPYRLEDIHEGHHHHHH", "soluble on expression in E. coli": "soluble"}
{"sequence": "MTDQLQHIRKPPRTGKAARSGTQDEIVYAHIFDAILEQRLAPGTKLSEEALGEIFGVSRTIIRRALSRLAHEQVVLLRPNRGAVVASPSIDEARQILFARRTVERAITELATDNATAERLAEL", "soluble on expression in E. coli": "not soluble"}
{"sequence": "GSELKDYYAIMGVKPTDDLKTIKTAYRRLARKYHPDVSKEPDAEARFKEVAEAWEVLSDEQRRAEYDQMWQHR", "soluble on expression in E. coli": "soluble"}
{"sequence": "GMFVSDQAEAKGFIEDSSLDLLLRNYYFNRDGKSGSGDRVDWTQGFLTTYESGFTQGTVGFGVDAFGYLGLKLDGTSDKTGTGNLPVMNDGKPRDDYSRAGGAVKVRISKTMLKWGEMQPTAPVFAAGGSRLFPQTATGFQLQSSEFEGLDLEAGHFTEGKEPTTVKSRGELYATYAGETAKSADFIGGRYAITDNLSASLYGAELEDIYRQYYLNSNYTIPLASDQSLGFDFNIYRTNDEGKAKAGDISNTTWSLAAAYTLDAHTFTLAYQKVHGDQPFDYIGFGRNGSGAGGDSIFLANSVQYSDFNGPGEKSWQARYDLNLASYGVPGLTFMVRYINGKDIDGTKMSDNNVGYKNYGYGEDGKHHETNLEAKYVVQSGPAKDLSFRIRQAWHRANADQGEGDQNEFRLIVDYPLSILHHHHHHHH", "soluble on expression in E. coli": "soluble"}
{"sequence": "MTFEEYQKEAQKTALYPEAYRLVYPALGLAGEAGELANKVKKVLRDHGGRLSEEAREAILAELGDVLWYVAQVATDLGESLEAVAQANLAKLRSRKERGRLGGDGDDR", "soluble on expression in E. coli": "soluble"}
{"sequence": "MENSDDIRLIVKIAQLYYEQDMTQAQIARELGIYRTTISRLLKRGREQGIVTIAINYDYNENLWLEQQLKQKFGLKEAVVASSDGLLEEEQLSAMGQHGALLVDRLLEPGDIIGFSWGRAVRSLVENLPQRSQSRQVICVPIIGGPSGKLESRYHVNTLTYGAAARLKAESHLADFPALLDNPLIRNGIMQSQHFKTISSYWDSLDVALVGIGSPAIRDGANWHAFYGSEESDDLNARHVAGDICSRFYDINGGLVDTNMSEKTLSIEMAKLRQARYSIGIAMGEEKYSGILGALHGRYINCLVTNRETAELLLK", "soluble on expression in E. coli": "soluble"}
{"sequence": "MAEEKVKDEAMQIMGMFQILPRLVVFDLDYTLWPFYCECRSKREMPSMYPQAKGILSALKEKGIEMAIASRSPTSDIANTFLDKLNIKPMFVAKVSKMGVTSILVGDGVTLGAFRQGLTEFTQNHNSIEKNKQVWRDKYSGKPTSSETDKD", "soluble on expression in E. coli": "soluble"}
{"sequence": "MEWHFSLKEPHVLLFLPFEKYALPYPDPSQSWLSFGLTEIPVPEWTKNLEIITPWRPDFLKFANAQFRCSPEINQTCTHDGALLQLSKYRGFNQNCFLDLLERVKPGGWIIIGGNKTSGADSMMKWVKKIVPITNKFSKNHGLVFWIQVPQQIEKQNTAQLRSPPLTFENKFQTTSGMFSHGRIDPGSAVLASHMCKTISGKTADFGAGWGFLSHAALERSEKLTALDLYEADYNALKAAKQHLKHITTSLPIHFYWHDLVHEPITNLYDTIISNPPFHTQQTTDVSLGQHFIINAAKYLKPGGNLLLVANRHLPYETLLKRLFRTVLIYEKAHGFKVIEAYR", "soluble on expression in E. coli": "not soluble"}
{"sequence": "MGSDKIHHHHHHMVVILSERAFSRRDQTGAEVMLNRRRFLTNAATAAAATLWVSKGGMQARAEEAGNGSPWRRFEIITKVDLQPAEGPAQLWLPVVRSAGDYQKADAPLWVSNSTDIRMEKDPSSGADILRVMWEDEPRRVIEVTQHVATRDRRVTSKIAATEAELQHELRGTPSMPVDGIVKTTAMRIVEGRDRAEDRARAIYDWVIDNTFRDANIDGCGVGNARDMLETGYFGGKCADISSLFVSLARAAGLPARDVFGIRVADSADFKSLGRSGDITKAQHCRAEVYLDAHGWVPVDPADVRKVVLEENLPLDNPAVRAFREKAYGNWEMNWVGYNTARDLVLPGGELRQGFLMYPAAVTSRGELDCLNPQTFAYSITSREITA", "soluble on expression in E. coli": "not soluble"}
{"sequence": "MGSDKIHHHHHHMEETNEMKDSKHLISNIQSQYTRLSKGQKLIAQYILNNYDKVAFMTACKLGETVGVSESTVVRFANALGYSGYPKLQAALQELIKNKLTTVQRVEMAHDYSDDFAILNKVLKSDIDNIRSTLEEIDERAFKEASNKLLRARKIYILGMRSSFVVAQYLGFYLDIILDNVHIIRMDMGDAFEQIVRINEEDVIVAISFPRYSKKSYQIVNYAKEKGAHVISLTDSLFAPVASLADNTLLVKSNMASFVDSLVPALSISNALAISVGMKEKEDIKQHFDDLEQIWKRYSVYE", "soluble on expression in E. coli": "not soluble"}
{"sequence": "MSDDGAFERDTTSFRHWVGDDVPPAAGRYHLYVSYACPWAHRTLLVRALLGLEDAISVSVVDPVRYDQGWTFDPEKPGCTPDHVFGGTHLRDVYTEADPEYTGRVTVPVLYDTDADTIVNNESEEIMRMLDVAFDDHAARDVDLYPEGYRDEVDRLIEDIYDPINNGVYRAGFADSQRAYDNAVDDLFEALAHYDDVLAEQRYLAGDVLTEADVAMFTTLYRFDEVYHTHFKCNRKRISDYDNLWPYLRELCQLPGVADTLYMEHVKQHYYRSHGHLNPKRLVPTGPNPAFFAPHDRDQLEHHHHHH", "soluble on expression in E. coli": "soluble"}
{"sequence": "MGSDKIHHHHHHEPVSSISDANYWKSPDLFKAFNIGLHGLLRSQSSYNIFVLGEPRSDIYGDQPFGGEATQGVERFSYNTINAEFTGISNFANFYTTLNQINLMIRRTNETDLLGEAEKNYYLGQAYGLRAYIYFHLLRSWGDVIITTEPTLGSELDISHLDKAASPASEVMDLIKKDIDASEKAFGGDYSYKQGKCYWSKPATLMLKGEVYLWSGRQMGGGTGDYTVAKTALQDLQQNGNLKLQEKFTDVFSFNNKENSEMIFALHSGKEDDFMMWRDYNWRNNMVPQREYMAGYCDETGTPFLEIPGYNLQGLMRYQVKKDHYLKSFREGDTRLKGTLKAVYKKHEDGTLEYIAPIQYKFQGTTLEGSNERSWYDDYPIYRYADALLLLAEAKALLGEDPSTEINAVRERAYGSEYFNAHKNEVAYPNDKGSFYNDNPFEAGDENVMEAILKERLREFFFEGKRWYDLRRFGKDYVLKYTTAQESRLLWPINEGALTNNPALKQTPGY", "soluble on expression in E. coli": "not soluble"}
{"sequence": "MNRIFCALMRADAARFREVVFPCALLQNHPHQFPHVLARLEFFAPPDQRNCLLLPRVLVKRSLAAKEPSKVNFLSVNLRKELHEEAKSSKKTNLK", "soluble on expression in E. coli": "not soluble"}
{"sequence": "MGSDKIHHHHHHMFDWNDVRFFLALQRNGKLLGAARQMGTTHATVARHIAALEKVLGQPLFVQQADGYSLTAAGRQLLPLAESLENTASQMLDSGSKGHAEVSGVVRLGAPEGLGALFLARHMPALMARYPELEIDLVAVPRFVSVTSREVDIAIALERPQANMVVTRKLTDYCLGLYATQAYLAAHPPIREREDLNGHAILAYVDDLLFTRELMYHHGLCRHPSMPLRSTSVVAQREAALADGGIAVLPYYTTYDDPRLTQILPELRIIRSYWISARSNIRRTLRYRVVWDYVVELCQNMQWLLLQEEQNRSIETA", "soluble on expression in E. coli": "not soluble"}
{"sequence": "MASFSILSIFKIGVGPSSSHTIGPMEAGARFCESLKGILEQVVRVQITLHGSLALTGKGHLSDEAVLIGLHGIYANELEVTTKKALLHEALENKVLKLANQHHIPFDYAKDLIFDNKPLTRHQNALILKAFNSKNEVLKEETYYSVGGGFVYTEKELDNLSEEDGNESIAYDFSSAKELLELCQKHQKSIAEIVRLRENALKNHPDATMVKIYHAMLECYDNGANSKERYLPGSLKVTRLAPSIKTRLEKHPTSGKDPLALIDYISLYARAIAEENASGGKVVTAPTNGACAVVPSVLLYAKNHLFENLSQKAINDFLLTSAAIGYLYKKNASLSGAEAGCQAEIGVASSMAAGGLAHLCQATTQQVLIASEIAMEHHLGLTCDPVGGLVQIPCIERNVLGAIKAISASKLALEDEYKPKVSLDEVIATMYATGKDMNEKYKETSLGGLAKTLKC", "soluble on expression in E. coli": "not soluble"}
{"sequence": "MSLKSDKDHSVNINARGSFNDRADEISDAEQYGNRLSLAYQGKFLEDTLGVAVGYAHLYQPYVASQFIGLRFNDANEDVNGDGVKEAISEGFELQQKGGDDTRDGYMAAIHWQPTDNFSVKGDLFHSKFTSENFARGFRVKSLKNGTISDAVVESGSMTGGTVSTDGTDNFAVFVVNDNDSKYSELTSGSFNVEWNNGGALTVAADVSYSKADGEFVNGGTRAVLYDDIGNEVRSAESVTYKLNGLSPADISFANDYTNTATLGLKEVGMWPYNQQNDLVAYKLDFNYALDMGFVSSVDFGVRYAEREFNAQRSQAGYGFEYGKNPSNQPVLALNGDMAKVVDFGGELSGYPSFLAIDFNKAIELVNAQLAATGQSPFTPTANWSNNWTMIQSGAVNEDVLAGYVQANLDFDIGDIKVTGNLGVRVVNTDQSSTGLQQVGYGLGEAITDELGVVSKDYIRNEVGKTYTDYLPSLNLTFHLTENDQLRFAAASVMSRPPINKLKSGMGSWYDDSATPGYKKYNAWGNTSPLLDPFYADQYDLSYEHFFEESEGAVVVALFYKDIKSFINDFTIQPFDFEANGFIVPDTIIDNGVEFPVIKNEGQYQTAINNDKGGYIRGIELGYTQIFDFLPSPLDGLGFTGSYSYSDSEVELTTDLSGSNLIMPLPGEGHHHHHH", "soluble on expression in E. coli": "not soluble"}
{"sequence": "MILINKRAEKQDYQTILAIWEKSVIVTHDFLTAEDRQFYKEQIPLFLDNVELFLWFAGEEVIGFSGTSERELDMLFLDPVATGNGYGSQILGWLIENKRINLVDVNEQNENATRFYLKHGFVVSSRSDLDGFGKPYPILQLQLK", "soluble on expression in E. coli": "not soluble"}
{"sequence": "MRDMIHNISYRLMVYGTEDEEKVIEALRNVIPGATPERESAEGYHGNPITVLRGRLDRRRALREFMEKFTEVFRGRMDELEDRFDENGNLFLRLDKQKALEGVWEPVRHGDAIHLKIKVEAYPAKREVAVENIRKILE", "soluble on expression in E. coli": "not soluble"}
{"sequence": "MNIVALHVVLYHPEIPANTGNIARTCAATNTTLHLIRPLGFSTDDKMLKRAGLDYWEFVNVVYHDSLEELFEAYKKGKFFFITKFGQQPHTSFDYTDLDEDYFFVFGRETSGLPKDLIQNNMDRCLRLPMTEHVRSLNLSNTAAILVYEALRQQNYRDLK", "soluble on expression in E. coli": "soluble"}
{"sequence": "GPGSMSDWETIAKESEKVLVKPDIKGCHEILMKAYEGGNHHPEILWRLGRSYYEMANESTDPAVREPYLKEGMELCKKSVEADPHNFASHKWLGILISDQKVGNKEKIANAYIIRDHFLKAVELNPNDATSLHCMGNWCFKILQIGWLERKAAALILGEPPSSTYEECLGYLLRSAEAGNTIHNSTMIGDVYAQQSMHDEARKWYQKAIDMPAYTELQKRNHDAAVAKIKKL", "soluble on expression in E. coli": "soluble"}
